Reference: the DeepSol protein solubility set

Test: soluble on expression in E. coli; label from the status in PepcDB or PDB records
For “MAHHHHHHMQSQQHHYTASPTASPALSRAGVSSTPVLILDLGSRTIKSGLHTATTPHLTPALVGTPKYPRCLPQVSSSFNQSSSISTSCFVVGSDAASRRGVLRLSRPIQHGGVIMDWVGTRPLLRQSIQNALVPPSSSLAVRQPLEEGEDVIYSLVESPYASRPQRARLAELLFEGPDQEAVMSDSGKQQRVGPRAAGVFCGVGPLLALYATGQTTGVVVDVGDGAVSTAAAADGYVLPQCLQREADGATGAAVTSYLTRLLYQSGVLGPAAATAAFRRSAPPSLLGSATNHLSSGAGAGTQQERELVYALKEACCSVSATPLFSTKSSLAAADASTAATPSLAELNSALIAAAQRTQHSGPGGSGAAHASTPFSHPFTLPDGSFLEVGGAEAAQASEVLFYPALMGSEGRGVVDVVLDAVAAAPAELQPQLLGNVVVTGGVTCSAGFGYRFFNEMQQRIRGCAASSTNGSSNQRICVSAPEQRAYAAWMGASYVAQISSFASSMVVTRAAYEEEGEAALARRVLT”, the “soluble on expression in E. coli” value was “not soluble”. For “MIKSITIRTSREFEIIDITKEVERVVRESNVKSGIVVVFTRHTTTALTINENESGLKRDIEEILSKLVPKGMNYFHDRIDNNAHSHLRGILLGPSLTIPVEDGRLLLGTWQSILFVELDGPRTREVYVKVCECLEHHHHHH”, the “soluble on expression in E. coli” value was “soluble”. For “MYDSAPSDPVPFARLRFRDLQLLREIAAARSLTAVAERRGLTQPALSRTLRDIEAELGAQVFSRERGARLAPTAVGRHILARVDLLMADAGALHSELRAFEEGRGAHLRLGVIPFVSNALMQEVLKTLTGEPLRMSVSTFEGATDQLVLALRRQELDIVIGRLSADAGADTLAQEGLFSQTASIVMSEALYERRASLTLASLHGHPWVLPPASSPTRMAFVEAFVSRNAVAPVARIETTSARLVHSAISSNMASLGLLPLDIGQELERWGGVRCKAFPVPFRMPTVGLIVLAERRARAMNRVVRDVLHRCIARVAAYA”, the “soluble on expression in E. coli” value was “not soluble”. With “MGSDKIHHHHHHMNAQIQIIKTAQGHMALCQDTPKDIAPAWFAVDFWRAKDAVVGSSKGRYTTWFVAFEHSHWVLRHYWRGGLMEKFSKDAYVYTGLENTRAMAELRLLNILYHEDFAVPKPIAANIVRDGLFYRADIIIERVEGAEDLVAKLSKGLMNTEQWQALGATIAQFHQRGVYHADLNAKNILFQPAQTAPITPERFYLIDFDRGELKTPSPQWQQSNLDRLLRSFNKEQGKLPSLAFTADNWSSLMMGYQAAMQSA” the “soluble on expression in E. coli” value was “not soluble”. For “DDYDQSLCSTGFYVVRSNQINPETLLTLFKSLPIQQLLKKACSGTILTGIGKQEFEKIPIPLIRPEVQEEIAQHVQRSFALRKEASELLEKAKLSVEYAIETGGGNSLIYSGLLNTLAKYERLAMWLLLKELGIVDESPNRQRVVTTEKRLSESFFTSGRLDAEYYQPKYDYLDAQFSSIPTKRLGDIVNIHKSIEPGSDAYQENGIPFVRVADLSKFGIETSSICLDSSTYSTAPRPRKNTILLSKDGSVGIAYKMEEDADIITSGAILHLSMKGKELLPDYLTLVLNSPIVRMQAERDAGGSIIQHWKPSEISQVIIPMLPVYIQQKLSDLVSKSFAFRRESKALLERAKAMVEQAIEFSA”, the “soluble on expression in E. coli” value was “not soluble”. With “MYLHMAIAAPRILCPDMDSDTTKKWIFREPSRTDGDDVYALITECPPLDINSSYCNFLQATHFSKTCVLAEKDGDLAGFISGYQEPDEPNTLFIWQVAVSPRYRGKGLAFSMLTTLLERKNLLHIEFIETTITKANNASWSLFKKIDAQYGNQGQVTTFLDKESHFKGKHDTEYLYRIPLKSSQK” the “soluble on expression in E. coli” value was “not soluble”. With “MGSDKIHHHHHHMKNAMLVLCVFLGLSACADRDLMPIVPEAVEIGTPYTVFSTTTRAQEADGTYGFRRSEQLRMMEMTVTIPPNHSPGELSYRYKNPDPHKNFAIAEELPVASVSDLRARFLREQRENNWPLREVTIFVHGYNSTHPETAYRSAQMAHDVELPGSLVMYSWPSRGRAFGYAYDIDSMLFARDGLEETVRRVKQAGAERIILVAHSMGTALAMEMLRQADLRNPGWAARTLNGGVILISPDLDVDVFESQMMDLKQVPQPFGVMVSEKDHILNISGRLRGTSEGERLGNIKSAERLMKWPIEVIDLTAFNADAASGHFVAATSPSLLAVIRSASNVSRLFGPVDPTLFQQILPQSQTIVTDHGKLMLARQQRQEER” the “soluble on expression in E. coli” value was “not soluble”. With “MAHHHHHHMASMNHPDELEGSATSGVLCPLTAYEEVPPTKTRSQIIKEQLLDLENYSFEIPDRPEGDPSGKLAYLDMCEQLHKESFMKFPTHSVANSLCEGKESLDVSFFALGKKGSAALAAALRVNLTIRKLSLLRNHITPSGAMEIARALSETKVVSDLDLSENLLGLTDADDIQGGAVVAEFLKPGNVLKTLSLRDNKLSDQHVTEFAEAAIDNTELHSLDLSFNRIGYIGAIELANILSKNADLQEINLEWNQFQTIGSRHILAEGLLLNNTIKRFNMSWNGLDDACGVLVGRIISENDIEEIVVAHNRIGPAGAEAIAKGLLNTSALTTLILDDNPMQNEGCAAILRVVGEAATLTNVSLQQCRCDSSVVLEADRVMKEVRPDLDIRISEGCCAKVVM” the “soluble on expression in E. coli” value was “not soluble”. With “AASSAQCDFGGPFQAYKSVNGPGNGGYYLRKTTKPGTPECAYVLVPQNTLSEGQSTSFTYGKLQNGQMIQLTATVTVNGDKIEVTGAGQDLSGTTTVLFSDYRSCDVMRGPDGNYELWVHSSAINLQSYGCCDTKFAQVAGGRPIHHTWQTYCPPLP” the “soluble on expression in E. coli” value was “soluble”. In the case of “MGSSHHHHHHSSGLVPRGSHMAPIVETAKETNSDSSLYLDLMIKVLAGTVYEDPAHRENFSHRDSTYREEVRNEGRDWPANAHTMIGIKRLENIRQCVEDVIGNNVPGDLVETGVWRGGACILMRGILRAHDVRDRTVWVADSFQGIPDVGEDGYAGDRKMALHRRNSVLAVSEEEVRRNFRNYDLLDEQVRFLPGWFKDTLPTAPIDTLAVLRMDGDLYESTWDTLTNLYPKVSVGGYVIVDDYMMCPPCKDAVDEYRAKFDIADELITIDRDGVYWQRTR”, the “soluble on expression in E. coli” value is reported as “soluble”. With “MFSQNPYESHVDVAVSAASANLRNMTNEQLISLLDDDALLESIIVNLPQVRSMPTDKESALAANKSLAEWNLAQKPRIDAAKTQTVDLYDQVKKLQGEVAVLKSQLDSVSSSKSLDTTSSLMQVAAQEADDDAEALFTQFENGEISVEIFLKQFKDKKTIAHLRKIKSDRLAALLREQTYSSYAQPTVPPPMPHAQPGYPTGNHMPGIGNIQFGSGYSGYPNISQPSAGRHPFF” the “soluble on expression in E. coli” value was “not soluble”. With “MAGDPMGTLKLIQYPSQLLSLTISDIINKQNLSQLIQKSKKDDSENWEGKDWIIKNTPQQGINWIGEHPNIKAVIIKTKDGSYADDGWKNNEKTIYSYSFKAAKGIINFNDSANRVLINQPISNYPILLFTDSSNKWEFQGCFKIIDILEKAVILEKMISFPSLNDKNSDNDDVILYKNEHTEGKIKYITHMLSERNRKIIDEIKDNSQWVCDICEIKFLDKYGKNYIEAHHKIPIHTFTGEHRILKTDFALLCPNCHKAVHIYLREENLQYEEAKIKIRNILKRLEHHHHHH” the “soluble on expression in E. coli” value was “not soluble”. In the case of “LEPRHAMLLRCRLPGGVITTKQWQAIDKFAGENTIYGSIRLTNRQTFQFHGILKKNVKPVHQMLHSVGLDALATANDMNRNVLCTSNPYESQLHAEAYEWAKKISEHLLPRTRAYAEIWLDQEKVATTDEEPILGQTYLPRKFKTTVVIPPQNDIDLHANDMNFVAIAENGKLVGFNLLVGGGLSIEHGNKKTYARTASEFGYLPLEHTLAVAEAVVTTQRDWGNRTDRKNAKTKYTLERVGVETFKAEVERRAGIKFEPIRPYEFTGRGDRIGWVKGIDDNWHLTLFIENGRILDYPARPLKTGLLEIAKIHKGDFRITANQNLIIAGVPESEKAKIEKIAKESGLMNAVTPQRENSMACVSFPTCPLAMAEAERFLPSFIDNIDNLMAKHGVSDEHIVMRVTGCPNGCGRAMLAEVGLVGKAPGRYNLHLGGNRIGTRIPRMYKENITEPEILASLDELIGRWAKEREAGEGFGDFTVRAGIIRPVLDPARDLWD”, the “soluble on expression in E. coli” value is reported as “soluble”.
